Numbering of substitutions follows the chain as printed. One block for each binder: values may come before it.
Assays:
[1] = molecular target: T1, human plasma kallikrein (human, UniProt P03952 20-390; P03952 391-638); assay: ELISA; signal on biotinylated plasma kallikrein divided by signal on streptavidin background
T1 construct: also called pKal; human pKal
Description: Abbreviations used: “T/B” is the ELISA signal obtained using of the “target” (biotinylated plasma kallikrein) divided by the ELISA signal of the “background” (streptavidin); both of which were coated on microtiter plates. “nd” is not determined. The symbol “q” refers to the amber suppressible stop codon (TAG), which is translated as glutamine (Q) in strains of E. coli such as the TG1 cells that were used to express the Fab fragments.

[2] = molecular target: T1, human plasma kallikrein; assay: apparent Ki (Ki,app), inhibition of human pKal activity

T1 sequence (P03952 20-390, chain 1 of 2): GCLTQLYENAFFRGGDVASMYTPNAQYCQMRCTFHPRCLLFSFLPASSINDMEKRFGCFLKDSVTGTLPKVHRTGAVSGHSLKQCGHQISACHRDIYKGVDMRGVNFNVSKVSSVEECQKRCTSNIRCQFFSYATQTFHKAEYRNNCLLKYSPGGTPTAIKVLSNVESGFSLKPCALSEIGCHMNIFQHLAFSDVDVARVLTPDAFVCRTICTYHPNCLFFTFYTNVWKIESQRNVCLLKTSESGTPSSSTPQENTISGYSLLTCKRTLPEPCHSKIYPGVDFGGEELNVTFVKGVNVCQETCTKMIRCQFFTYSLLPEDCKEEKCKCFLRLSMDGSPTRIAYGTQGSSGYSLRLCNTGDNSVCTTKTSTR
T1 sequence (P03952 391-638, chain 2 of 2): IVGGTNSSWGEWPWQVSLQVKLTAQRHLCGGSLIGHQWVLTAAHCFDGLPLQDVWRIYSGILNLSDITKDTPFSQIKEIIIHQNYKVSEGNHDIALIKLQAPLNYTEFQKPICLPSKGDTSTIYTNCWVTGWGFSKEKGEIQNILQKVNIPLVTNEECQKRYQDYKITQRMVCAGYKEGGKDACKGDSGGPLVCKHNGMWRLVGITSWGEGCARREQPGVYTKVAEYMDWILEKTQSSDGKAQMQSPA

ELISA (T/B) [1]: 39.9 T/B ratio
Ki [2]: 5.9 nM
B1: M6-D09 (antibody, V domains shown)
VH: EVQLLESGGGLVQPGGSLRLSCAASGFTFSFYYMVWVRQAPGKGLEWVSVIYPSGGITVYADSVKGRFTISRDNSKNTLYLQMNSLRAEDTAVYYCARDKWAVMPPYYYYAMDVWGQGTTVTVSS
VL: DIQMTQSPSSLSASVSDRVTITCRASQSIRNYLNWYQQKPSKAPNLLIYAASTLQSGVPARFSGSGSGTDFTLTISSLQPEDFATYYCQQLSGYPHTFGQGTKLEIK

ELISA (T/B) [1]: 2.4 T/B ratio
B2: M110-C12 (antibody, V domains shown)
VH: EVQLLESGGGLVQPGGSLRLSCAASGFTFSYYEMDWVRQAPGKGLEWVSGISSSGGHTAYADSVKGRFTISRDNSKNTLYLQMNSLRAEDTATYYCARERRSSSRARYYYGMDVWGQGTTVTVSS
VL: DIQMTQSPLSLSVTPGEPASISCRSSLSLLHSNGYNYLDWYVQRPGQSPQLLMYLSSTRASGVPDRFSGSGSGTDFTLEISRVEAEDVGVYYCMQPLETPPTFGGGTKVEIK

ELISA (T/B) [1]: 33.5 T/B ratio
B3: M38-F02 (antibody, V domains shown)
VH: EVQLLESGGGLVQPGGSLRLSCAASGFTFSYYMMVWVRQAPGKGLEWVSYIYSSGGHTVYADSVKGRFTISRDNSKNTLYLQMNSLRAEDTAVYYCARDLFLYDFWSKGAFDIWGQGTMVTVSS
VL: QSVLTQPPSVSVSPSQTASITCSGEKLGDKYVSWYQQKPGQSPSLVICEDSRRPSGIPERFSGSNSGNTATLTISGAQPMDEADYYCQAWDSSTAIFGPGTKVTVL

ELISA (T/B) [1]: 41.8 T/B ratio
B4: M161-C11 (antibody, V domains shown)
VH: EVQLLESGGGLVQPGGSLRLSCAASGFTFSDYAMKWVRQAPGKGLEWVSSISSSGGVTQYADSVKGRFTISRDNSKNTLYLQMNSLRAEDTAVYYCAREEDYSSSWYSRRFDYYYGMDVWGQGTTVTVSS
VL: QSALTQPPSVSVSPGQTASITCSGDKLGDKYVSWYQQRPGQSPVLVIYQDTKRPSGIPERFSGSNSGNTATLTISGTQAVDEADYYCQAWDSSTYVFGGGTKVTVL

ELISA (T/B) [1]: 45.7 T/B ratio
B5: M7-E07 (antibody, V domains shown)
VH: EVQLLESGGGLVQPGGSLRLSCAASGFTFSWYLMIWVRQAPGKGLEWVSYIYPSGGFTYYADSVKGRFTISRDNSKNTLYLQMNSLRAEDMAVYYCARTEGPLSWGYGMDVWGQGTTVTVSS
VL: not shown

ELISA (T/B) [1]: 41.3 T/B ratio
B6: M27-E05 (antibody, V domains shown)
VH: B5 VH
VL: not shown

ELISA (T/B) [1]: 11.4 T/B ratio
B7: M162-A04 (antibody, V domains shown)
VH: EVQLLESGGGLVQPGGSLRLSCAASGFTFSHYIMMWVRQAPGKGLEWVSGIYSSGGITVYADSVKGRFTISRDNSKNTLYLQMNSLRAEDTAVYYCAYRRTGIPRRDAFDIWGQGTMVTVSS
VL: DIQMTQSPSTLSASVGDRVTITCRASQSISSWLAWYQQKPGKAPNLLIYKASTLESGVPSRFSGSGSGTEFTLTISSLQPDDFATYYCQQYNTYWTFGQGTKVEIK

ELISA (T/B) [1]: 29.9 T/B ratio
B8: M142-H08 (antibody, V domains shown)
VH: EVQLLESGGGLVQPGGSLRLSCAASGFTFSAYSMIWVRQAPGKGLEWVSYIRPSGGRTTYADSVKGRFTISRDNSKNTLYLQMNSLRAEDTAVYYCARGGLLLWFRELKSNYFDYWGQGTLVTVSS
VL: DIQMTQSPSSLSAFVGDRVTITCRASQPIDNYLNWYHQKPGKAPKLLIYAASRLQSGVPSRLSGSGFGTDFTLTISSLQPEDFGNYYCQQSYTVPYTFGGGTKVEIR

ELISA (T/B) [1]: 4 T/B ratio
B9: M73-D06 (antibody, V domains shown)
VH: EVQLLESGGGLVQPGGSLRLSCAASGFTFSRYEMYWVRQAPGKGLEWVSSISSSGGPTAYADSVKGRFTISRDNSKNTLYLQMNSLRAEDTAMYYCAKGTPKWELLLRSIYIENAFDIWSQGTMVTVSS
VL: QSELTQPPSASETPSQRVTISCSGSSSNIGSNTVSWFQQLPGSAPRLLIYNDHRRPSGVPDRFSGSKSGTSASLVISGLQSQDEADYYCSAWDDSLNGVVFGGGTKLTVL

ELISA (T/B) [1]: 38.3 T/B ratio
B10: M160-G12 (antibody, V domains shown)
VH: EVQLLESGGGLVQPGGSLRLSCAASGFTFSHYLMTWVRQAPGKGLEWVSYISPSGGHTIYADSVKGRFTISRDNSKNTLYLQMNSLRAEDTAVYYCARVARGIAARSRTSYFDYWGQGTLVTVSS
VL: DIQMTQSPSFLSASVGDRVTITCRASQGISSYLAWYQQKPGKAPKLLIYAASTLQSGVPSRFSGSGSGTEFTLTISSLQPEDFATYYCQQLNSYPLTFGGGTKVEIK

ELISA (T/B) [1]: 40.6 T/B ratio
B11: M146-E12 (antibody, V domains shown)
VH: EVQLLESGGGLVQPGGSLRLSCAASGFTFSRYIMHWVRQAPGKGLEWVSSISPSGGLTSYADSVKGRFTISRDNSKNTLYLQMNSLRAEDTAVYYCAREFENAYHYYYYGMDVWGQGTTVTVSS
VL: DIQMTQSPSSLSASVGDRVTITCRASGDIGNALGWYQQKPGKAPRLLISDASTLQSGVPLRFSGSGSGTEFTLTISSLQPEDFATYYCLQGYNYPRTFGQGTKLEIR

ELISA (T/B) [1]: 28 T/B ratio
B12: M41-A11 (antibody, V domains shown)
VH: EVQLLESGGGLVQPGGSLRLSCAASGFTFSHYRMSWVRQAPGKGLEWVSSIYPSGGRTVYADSVKGRFTISRDNSKNTLYLQMNSLRAEDTAVYYCAKDKFEWRLLFRGIGNDAFDIWGQGTMVTVSS
VL: QSVLTQPPSVSVSPGQTASITCSGDKLGDKYTSWYQQRPGQSPVLVIYQDIKRPSGIPERFSGSNSGNTATLTISGTQAMDEADYYCQAWDSPNARVFGSGTKVTVL

ELISA (T/B) [1]: 40 T/B ratio
B13: M145-D11 (antibody, V domains shown)
VH: B12 VH
VL: B12 VL

ELISA (T/B) [1]: 19 T/B ratio
B14: M152-A12 (antibody, V domains shown)
VH: EVQLLESGGGLVQPGGSLRLSCAASGFTFSPYFMGWVRQAPGKGLEWVSGIGPSGGSTTYADSVKGRFTISRDNSKNTLYLQMNSLRAEDTAVYYCAREGPPYSSGWYRGLRQYHFDYWGQGTLVTVSS
VL: DIQMTQSPSSLSASVGDRVTITCRASQSISSYLSWYQQRPGKAPNLLIYAASSLQSGVPSRFSGSGSGTDFTLTISSLQPEDFATYYCQQSISIPRTFGQGTKVEVK

ELISA (T/B) [1]: 5.4 T/B ratio
B15: M8-A09 (antibody, V domains shown)
VH: EVQLLESGGGLVQPGGSLRLSCAASGFTFSTYFMLWVRQAPGKGLEWVSSIYPSGGNTVYADSVKGRFTISRDNSKNTLYLQMNSLRAEDTAVYYCARAASPVRNYYYYGMDVWGQGTTVTVSS
VL: QCELTQPPSESVSPGQTANITCSGDKLGNKYAYWYQQKPGQSPVLVIYQDNNRPSGIPERFSGSNSGNTATLTISGTQAIDEANYYCQAWDSRTVVFGGGTKLTVL

ELISA (T/B) [1]: 4.1 T/B ratio
Ki [2]: 54 nM
B16: M7-B04 (antibody, V domains shown)
VL: QSALTQPASVSGSPGQSITISCTGTNSDVGNYNLVSWYQQHPGEAPKLLIYEVNKRPSGVSNRFSGSKSGNTASLTISGLQAEDEADYLCCSYAGNRNFYVFGAGTKVTVL
VH: EVQLLESGGGLVQPGGSLRLSCAASGFTFSWYSMVWVRQAPGKGLEWVSSISPSGGLTNYADSVKGRFTISRDNSKNTLYLQMNSLRAEDTAVYYCARHTAARPFYYYYMDVWSKSTTVTVSSASTKGPSVFPLAPSSKS

ELISA (T/B) [1]: 11.1 T/B ratio
B17: M35-G04 (antibody, V domains shown)
VH: EVQLLESGGGLVQPGGSLRLSCAASGFTFSYYHMSWVRQAPGKGLEWVSVISPSGGSTKYADSVKGRFTISRDNSKNTLYLQMNSLRAEDTAVYYCARGGSSDYAWGSYRRPYYFDYWGQGTLVTVSS
VL: DIQMTQSPATLSLSPGERATLSCRASQSVSSYLAWYQQKPGQAPRLLIYDASNRATGIPARFSGSGSGTDFTLTISSLEPEDFAVYYCQQRSNWPRGFTFGPGTKVDIK

ELISA (T/B) [1]: 6.2 T/B ratio
B18: M145-D01 (antibody, V domains shown)
VH: B17 VH
VL: B17 VL

ELISA (T/B) [1]: 38.4 T/B ratio
Ki [2]: 4.9 nM
B19: M12-B05 (antibody, V domains shown)
VH: EVQLLESGGGLVQPGGSLRLSCAASGFTFSWYTMVWVRQAPGKGLEWVSYIYPSGGATFYADSVKGRFTISRDNSKNTLYLQMNSLRAEDTAVYYCAMGSYDYIWGFYSDHWGQGTLVTVSS
VL: QSALTQPPTVSVSPGQTARITCSGNKLGDKYVAWYQQKPGQSPMLVIYQDTKRPSRVSERFSGSNSANTATLSISGTQALDEADYYCQAWDSSIVIFGGGTRLTVL

ELISA (T/B) [1]: 47.5 T/B ratio
Ki [2]: 0.7 nM
B20: M29-D09 (antibody, V domains shown)
VH: B19 VH
VL: B19 VL with R56A, V57I, S58P

ELISA (T/B) [1]: 39.2 T/B ratio
Ki [2]: < 100 nM
B21: M10-F10 (antibody, V domains shown)
VH: EVQLLESGGGLVQPGGSLRLSCAASGFTFSFYNMNWVRQAPGKSLEWVSSISPSGGETNYADSVKGRFTISRDNSKNTLYLQMNSLRAEDTAVYYCARGGGAYRNNWWGGFDIWGLGTMVTVSS
VL: DIQMTQSPSSLSASVGDRVTITCRASQSISVYLNWYQHKPGKAPKLLIYGASNLQFGVPSRFSGSGYGTDFTLTISSLQPEDFATYHCQQTFSLFTFGGGTKVEIK

Reference: US20100183625A1 (published 2010)
